“Also recorded” adds a separate entry of the source.
Experiments:
[1] = target: T1, Del-N11dTCTP (Rattus norvegicus, UniProt P63029); test: Inhibition of Del-N11dTCTP-mediated IL-8 secretion by polyclonal antibodies recognizing FL and H2 domains in BEAS-2B cells; format: cell-based; parameters: dose or concentration left out as unconfirmed; details: 20 hours
T1 construct: made in house
T1 sequence (P63029 11-172 limits assumed): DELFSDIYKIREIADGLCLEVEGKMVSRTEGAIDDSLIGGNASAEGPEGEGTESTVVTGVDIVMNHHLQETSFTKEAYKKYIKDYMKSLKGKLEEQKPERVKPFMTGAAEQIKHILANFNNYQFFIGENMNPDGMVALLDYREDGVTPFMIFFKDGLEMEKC
Protocol: The inhibitory effect on Del-N11dTCTP-mediated IL-8 secretion by the antibody recognizing FL and H2 domains constructed in Example 6 of the invention was investigated by treating the antibody to BEAS-2B cells.
Particularly, BEAS-2B cells were treated with anti-FL antibody and ani-H2 antibody at different concentrations. Then, Del-N11dTCTP-induced IL-8 secretion was compared. The BEAS-2B cells cultured in a 48-well plate were washed with 1% penicillin-streptomycin/BEBM (Lonza) twice, followed by serum starvation for 7 hours. The antibody diluted in PBS at the concentrations of 1 and 10 ng/ml was reacted with 70 μM Del-N11dTCTP at 37° C. for 2 hours. The reaction mixture was treated to the cells above. 20 hours later, the supernatant was obtained and the released IL-8 therein was quantified by ELISA.

[2] = test system: BEAS-2B cells; test: GM-CSF secretion by f-TCTP, Δ-dTCTP and Del-N11dTCTP in BEAS-2B cells; format: cell-based; details: protein at 1, 5 or 10 μg/ml, 24 hours, ELISA
Protocol: (§1) To investigate the IL-8 and GM-CSF secretory activity of f-TCTP, Δ-dTCTP, and Del-N11dTCTP in BEAS-2B cells, the present inventors compared the activity of f-TCTP, Δ-dTCTP, and Del-N11dTCTP by measuring the secretion of IL-8 in BEAS-2B cells.
(§2) Particularly, BEAS-2B cells were cultured in a 48-well plate until the confluency reached to 70%. Then, the cells were washed with 1% penicillin-streptomycin/BEBM (Clonetics) twice. Each recombinant protein of the Δ-dTCTP separated in Example 1 of the invention, and the f-TCTP and Del-N11dTCTP constructed by the method described in Korean Patent Application No. 2006-0007663 was added thereto at the concentration of 1 μg/ ? , 5 μg/ ? , or 10 μg/ ? 24 hours later, the supernatant was obtained and the released IL-8 and GM-CSF were quantified by ELISA.

[3] = target: T1, Del-N11dTCTP; test: Inhibition of Del-N11dTCTP-mediated IL-8 secretion by polyclonal antibody recognizing C-terminus domain in BEAS-2B cells; format: cell-based; details: Del-N11dTCTP 1 μg/mL, 20 hours
Protocol: BEAS-2B cells were treated with the antibody recognizing C-terminus domain constructed in Example 8 in order to investigate whether or not the antibody could inhibit the Del-N11dTCTP-mediated IL-8 secretion.
Particularly, BEAS-2B cells were treated with Del-N11dTCTP (1 μg/mL) by the same manner as described in Experimental Example 4. At this time, the antibody diluted in PBS at the concentration of 40 nM was mixed with 1 μg/mL of Del-N11dTCTP at room temperature, followed by reaction for 10 minutes. The reaction mixture was treated to the cells above. 20 hours later, the supernatant was obtained and the separated IL-8 therein was quantified by ELISA.

[4] = test system: dTBP2 (dTCTP binding peptide 2); test: Affinity of TCTP proteins to immobilized biotinylated dTBP2 (ELISA); details: biotinylated dTBP2 0.01-10 μm on streptavidin plate; protein 0.2 μg/ml; ELISA 450/570 nm
Protocol: To investigate the affinity to dTBP2 of f-TCTP, Δ-dTCTP, and Del-N11dTCTP of the present invention, biotin was conjugated to the COOH-terminus of dTBP2 known to bind to HRF, followed by purification. The purified protein was immobilized in the plastic well coated with streptavidin, to which f-TCTP, Δ-dTCTP, and Del-N11dTCTP were added. Then, the binding strength of each protein was investigated.
Particularly, 50 ? of the biotinylated dTBTP2 dissolved in a buffer (TBS [25 mM Tris, 150 mM NaCl, pH 7.2], 0.1% BSA, 0.05% Tween-20) at different concentrations of 0.01, 0.1, 1, and 10 μm was added to Reacti-Bind Streptavidin Coated Polystyrene Plates (PIERCE), followed by reaction at room temperature for 2 hours. The plate was washed with a washing buffer three times. Each of f-TCTP, Δ-dTCTP, and Del-N11dTCTP was dissolved in TBS at the concentration of 0.2 μg/ ? . 60 ? of the mixture was added to each well of the plate, followed by reaction for 1 hour. The plate was washed with a washing buffer three times. 100 ? of anti-HRF rabbit antibody (Bio-Rad) diluted in a buffer (1:2000) was added to each well of the plate, which stood at room temperature for 30 minutes. The plate was washed with a washing buffer three times and with TBS once, to which HRP-conjugated anti-rabbit antibody (1:2000) was added (100 ? /well), which stood at room temperature for 30 minutes. The plate was washed with a washing buffer three times and with TBS once, to which […] (PIERCE), the peroxydase substrate solution, was added (100 ? /well). Color development was measured at 450 nm and 570 nm using an ELISA reader (Bio-Rad), and affinity was determined by the difference.

[5] = test system: BEAS-2B cells; test: IL-8 secretion by f-TCTP, Δ-dTCTP and Del-N11dTCTP in BEAS-2B cells; format: cell-based; details: protein at 1, 5 or 10 μg/ml, 24 hours, ELISA
Protocol: as §1, §2

- IL-8 secretion, Del-N11dTCTP alone [1]: increased
- IL-8 secretion, PBS together with Del-N11dTCTP [3]: increased
B1: Del-N11dTCTP: dimer form of amino terminal-deleted TCTP, active HRF form (protein, UniProt P13693 12-172, looked up, fragment)
chain: EMFSDIYKIREIADGLCLEVEGKMVSRTEGNIDDSLIGGNASAEGPEGEGTESTVITGVDIVMNHHLQETSFTKEAYKKYIKDYMKSIKGKLEEQRPERVKPFMTGAAEQIKHILANFKNYQFFIGENMNPDGMVALLDYREDGVTPYMIFFKDGLEMEKC
modifications: dimer
- secretion of GM-CSF [2]: more than f-TCTP and Δ-dTCTP could do; also recorded: superior to f-TCTP and Δ-dTCTP
- affinity to dTBP2 [4]: higher affinity to dTBP2 than f-TCTP or Δ-dTCTP; also recorded: higher dTBP2 affinity than f-TCTP and Δ-dTCTP
- secretion of IL-8 [5]: more than f-TCTP and Δ-dTCTP could do; also recorded: superior to f-TCTP and Δ-dTCTP

Source: patent US11518805B2, “Binding inhibitor between TCTP dimer type IgE-dependent histamine releasing factor and receptor thereof, and use thereof” (EWHA UNIVERSITY—INDUSTRY COLLABORATION FOUNDATION, priority 2014, dated 2022)
